Experimental findings from patent publication US20150158933A1 are described below.

The test addresses natural VIF protein on the surface of T1 human cells infected with HIV-1 strain IIIB (HIV-1 strain IIIB) (UniProt P69723). The experiment in a line: flow cytometry on HIV-1 IIIB infected T1 cells, 1:100. On the technique in general: Flow cytometry measures light scatter and fluorescence of single cells or particles in a stream.
Chain of UniProt P69723 (P69723 whole entry): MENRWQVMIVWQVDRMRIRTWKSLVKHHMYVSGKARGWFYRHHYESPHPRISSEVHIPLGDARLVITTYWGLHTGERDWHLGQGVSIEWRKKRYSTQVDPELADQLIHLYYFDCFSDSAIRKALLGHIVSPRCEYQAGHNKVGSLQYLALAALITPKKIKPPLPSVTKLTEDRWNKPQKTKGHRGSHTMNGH

Isotype control (antibody) yielded an MFI of 971.
